Source: the supplement of paper PMC12042874
± gives the uncertainty stated by the source.

Assay: amyloid nucleation score (Sup35N fusion, yeast selection) (log enrichment); library NNK3; higher = more nucleation; inactive = no reads after selection
In short: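 Random libraries were run with three technical output replicates. In each, psi-negative yeast expressing Sup35N fused to peptides of 20 random codons were induced 24 hours with 100 μM copper sulfate and grown 7 days at 30°C on medium lacking adenine and uracil, and input and output plasmid inserts were Illumina-sequenced. The nucleation score is the DiMSum log enrichment of output over input reads, centred on the mode score of non-aggregating sequences, and sequences under 100 input reads were excluded.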

**Q.** Which amyloid nucleation score does the source give for HREPTNSNRMEIELRKSVWR here?
**A.** The amyloid nucleation score was “inactive”.

**Q.** Which amyloid nucleation score does the source give for DSGCLAMF here?
**A.** The amyloid nucleation score was “inactive”.

**Q.** Which amyloid nucleation score does the source give for NFFESLMVMSDKASLSVMK here?
**A.** The amyloid nucleation score was “inactive”.

**Q.** For CVWML, which amyloid nucleation score is on record?
**A.** The amyloid nucleation score was “inactive”.

**Q.** Which amyloid nucleation score does the source give for RHFDSMTINLYTTSLTFFAN here?
**A.** Its amyloid nucleation score is “inactive”.

**Q.** For TKLMGLSVLLIEVIVGVSCW, which amyloid nucleation score is on record?
**A.** The amyloid nucleation score was “inactive”.

**Q.** For YPMTQALVTSWVLHCTAMKM, which amyloid nucleation score is on record?
**A.** The amyloid nucleation score was “inactive”.

**Q.** For QLCVISWLGR, which amyloid nucleation score is on record?
**A.** The amyloid nucleation score was 1.14 ± 0.15.

**Q.** With NCNPFCIRLWFPNEYICW as the substance, how does the amyloid nucleation score read?
**A.** The amyloid nucleation score was “inactive”.

**Q.** With SYSKVCRSKRQI as the substance, how does the amyloid nucleation score read?
**A.** Its amyloid nucleation score is 0.185 ± 0.71.

**Q.** Which amyloid nucleation score does the source give for RILMCMLYAAGSMARYPIWG here?
**A.** The amyloid nucleation score was “inactive”.

**Q.** Which amyloid nucleation score does the source give for NYECNGWVGFVLTVPYGTIW here?
**A.** The amyloid nucleation score was “inactive”.

**Q.** Which amyloid nucleation score does the source give for TWLIGHGAVIVRLYNFYMAI here?
**A.** The amyloid nucleation score was “inactive”.

**Q.** For FYLHSFRLNHSLRDLSDLGE, which amyloid nucleation score is on record?
**A.** Its amyloid nucleation score is “inactive”.

**Q.** With VPGRVMVLRIWIYRNVQKRG as the substance, how does the amyloid nucleation score read?
**A.** Its amyloid nucleation score is “inactive”.

**Q.** Which amyloid nucleation score does the source give for VNEIF here?
**A.** The amyloid nucleation score was 0.432 ± 0.23.

**Q.** Which amyloid nucleation score does the source give for SESPKMLVHVVSHILRDFSE here?
**A.** The amyloid nucleation score was “inactive”.

**Q.** Which amyloid nucleation score does the source give for GANKVSNRRVMSSDPTSQCL here?
**A.** Its amyloid nucleation score is “inactive”.

**Q.** For VRYWTTPVL, which amyloid nucleation score is on record?
**A.** The amyloid nucleation score was “inactive”.

**Q.** Which amyloid nucleation score does the source give for ASSPLITRDDKAHGLEFHSY here?
**A.** The amyloid nucleation score was “inactive”.

**Q.** With HVSLNLDSQNCCMSECFA as the substance, how does the amyloid nucleation score read?
**A.** Its amyloid nucleation score is “inactive”.

**Q.** Which amyloid nucleation score does the source give for AFSISVLM here?
**A.** The amyloid nucleation score was “inactive”.

**Q.** For WFLSLLSQLGYGQVFVDFIP, which amyloid nucleation score is on record?
**A.** Its amyloid nucleation score is “inactive”.

**Q.** For RLNHKVFRSLCKKFLRWHGS, which amyloid nucleation score is on record?
**A.** The amyloid nucleation score was “inactive”.

**Q.** For VMDIVHPSSDAVVGRA, which amyloid nucleation score is on record?
**A.** Its amyloid nucleation score is -0.125 ± 0.53.

**Q.** For IRLDSYLDNMSMLLCKYWFC, which amyloid nucleation score is on record?
**A.** The amyloid nucleation score was “inactive”.

**Q.** For WVVPSWCHSFPLMIIKRTCC, which amyloid nucleation score is on record?
**A.** The amyloid nucleation score was “inactive”.

**Q.** Which amyloid nucleation score does the source give for LMYTRGFLWGAWINACMSRG here?
**A.** The amyloid nucleation score was 1.2 ± 0.15.

**Q.** With MYQSLAYFASDLRIHWHMRK as the substance, how does the amyloid nucleation score read?
**A.** The amyloid nucleation score was 0.729 ± 0.14.

**Q.** With IVLNIMHNVSHFLGLYVEG as the substance, how does the amyloid nucleation score read?
**A.** Its amyloid nucleation score is “inactive”.

**Q.** With LDLDVDNVSSDGKTWMGLV as the substance, how does the amyloid nucleation score read?
**A.** Its amyloid nucleation score is “inactive”.

**Q.** For GECTWTDVPMANSPRFVSEY, which amyloid nucleation score is on record?
**A.** The amyloid nucleation score was “inactive”.

**Q.** With HINISFISYYRRRMYYNVCG as the substance, how does the amyloid nucleation score read?
**A.** Its amyloid nucleation score is 1.62 ± 0.092.

**Q.** For VEKCKLLFVTTHECLCHCSR, which amyloid nucleation score is on record?
**A.** Its amyloid nucleation score is “inactive”.

**Q.** For FYKAFIL, which amyloid nucleation score is on record?
**A.** Its amyloid nucleation score is “inactive”.

**Q.** With YLYGGQRVGSF as the substance, how does the amyloid nucleation score read?
**A.** The amyloid nucleation score was “inactive”.

**Q.** For RRDCCGE, which amyloid nucleation score is on record?
**A.** Its amyloid nucleation score is 0.17 ± 0.75.

**Q.** With YLNFIGTLEV as the substance, how does the amyloid nucleation score read?
**A.** Its amyloid nucleation score is “inactive”.

**Q.** For IKNMHRLDFR, which amyloid nucleation score is on record?
**A.** Its amyloid nucleation score is -0.501 ± 1.9.

**Q.** With FKKCVDLKHYNVSMDVRCVL as the substance, how does the amyloid nucleation score read?
**A.** Its amyloid nucleation score is “inactive”.

**Q.** For VIVICFIFLMNVIPIQACWT, which amyloid nucleation score is on record?
**A.** Its amyloid nucleation score is “inactive”.

**Q.** For SDRYDCRDGSCFNRKVRYSL, which amyloid nucleation score is on record?
**A.** Its amyloid nucleation score is “inactive”.

**Q.** For SVRGITQLSSTLHVRLVITS, which amyloid nucleation score is on record?
**A.** The amyloid nucleation score was “inactive”.

**Q.** With YLNSYQDIYVRCVLELLYSS as the substance, how does the amyloid nucleation score read?
**A.** The amyloid nucleation score was “inactive”.

**Q.** For YISLDVTSIVGFVENIKQCV, which amyloid nucleation score is on record?
**A.** The amyloid nucleation score was 1.65 ± 0.068.

**Q.** For LNCMQVYFICVTWFAC, which amyloid nucleation score is on record?
**A.** Its amyloid nucleation score is “inactive”.

**Q.** Which amyloid nucleation score does the source give for MLSVPDVVRFWMFKFYKFSW here?
**A.** Its amyloid nucleation score is “inactive”.

**Q.** Which amyloid nucleation score does the source give for YMLQVRCSVDLFVLDTMCFL here?
**A.** Its amyloid nucleation score is “inactive”.

**Q.** With SNGHFAVGDDPEK as the substance, how does the amyloid nucleation score read?
**A.** Its amyloid nucleation score is “inactive”.

**Q.** Which amyloid nucleation score does the source give for SSDGFCLVIVYVCPSWYMLV here?
**A.** The amyloid nucleation score was “inactive”.

**Q.** Which amyloid nucleation score does the source give for INVVIRSSHFECTGC here?
**A.** The amyloid nucleation score was 1.15 ± 0.11.

**Q.** For TQNGVCYRNPVFYGRRARKL, which amyloid nucleation score is on record?
**A.** Its amyloid nucleation score is “inactive”.

**Q.** For FSISKLGCCYVTAMVVSASR, which amyloid nucleation score is on record?
**A.** Its amyloid nucleation score is “inactive”.

**Q.** Which amyloid nucleation score does the source give for SLYRWYVQMRGIR here?
**A.** The amyloid nucleation score was “inactive”.

**Q.** For SSACYTVLPGKAPTPAYPLL, which amyloid nucleation score is on record?
**A.** The amyloid nucleation score was “inactive”.

**Q.** Which amyloid nucleation score does the source give for TYRSTLSVSMAVRGSEMLD here?
**A.** Its amyloid nucleation score is -0.085 ± 1.

**Q.** For SIQYIYFDASQMRIENSRSL, which amyloid nucleation score is on record?
**A.** Its amyloid nucleation score is 2.37 ± 0.059.

**Q.** Which amyloid nucleation score does the source give for GESNLCDAG here?
**A.** The amyloid nucleation score was “inactive”.

**Q.** Which amyloid nucleation score does the source give for VVGRSCLFYSIVMY here?
**A.** The amyloid nucleation score was 0.419 ± 0.67.

**Q.** For MIGHFTYVGLWGSLATYVQV, which amyloid nucleation score is on record?
**A.** Its amyloid nucleation score is “inactive”.

**Q.** For TQNNNGRVETPGASTPKHPC, which amyloid nucleation score is on record?
**A.** The amyloid nucleation score was “inactive”.

**Q.** Which amyloid nucleation score does the source give for QYVVSGMTYFWRYMRLVNVR here?
**A.** Its amyloid nucleation score is “inactive”.

**Q.** With SIESMCPVYILVVAPEMCR as the substance, how does the amyloid nucleation score read?
**A.** Its amyloid nucleation score is “inactive”.

**Q.** With SLSTSNLNIKLSPCYSFNRH as the substance, how does the amyloid nucleation score read?
**A.** Its amyloid nucleation score is 0.678 ± 0.31.

**Q.** For HEKSIRVESMAVLIRPVTRS, which amyloid nucleation score is on record?
**A.** The amyloid nucleation score was “inactive”.

**Q.** For PVWVKYIDYCPSRKHLSCRV, which amyloid nucleation score is on record?
**A.** Its amyloid nucleation score is “inactive”.

**Q.** With TEVSQWGVREVFSLSTSRRL as the substance, how does the amyloid nucleation score read?
**A.** Its amyloid nucleation score is 0.372 ± 0.28.

**Q.** Which amyloid nucleation score does the source give for NCELGYARPLGDAMLNRAWF here?
**A.** Its amyloid nucleation score is “inactive”.

**Q.** For RIKCMEIFERPCYFLFCLHK, which amyloid nucleation score is on record?
**A.** Its amyloid nucleation score is “inactive”.

**Q.** With ETDVHSYFVSLYSYPFAVEP as the substance, how does the amyloid nucleation score read?
**A.** The amyloid nucleation score was “inactive”.

**Q.** With GVFVEIRILYKGKWYTCMSK as the substance, how does the amyloid nucleation score read?
**A.** Its amyloid nucleation score is “inactive”.

**Q.** With PIPTKLLVLKRQSTMHLDRF as the substance, how does the amyloid nucleation score read?
**A.** Its amyloid nucleation score is “inactive”.

**Q.** With TWWWDTKLVRRPCSRGWVTC as the substance, how does the amyloid nucleation score read?
**A.** Its amyloid nucleation score is “inactive”.

**Q.** With TWSMNIIMCLNRQVDQGFSL as the substance, how does the amyloid nucleation score read?
**A.** Its amyloid nucleation score is 1.82 ± 0.075.

**Q.** Which amyloid nucleation score does the source give for DGKGPMVYSGMCCRTFRGLV here?
**A.** Its amyloid nucleation score is “inactive”.

**Q.** Which amyloid nucleation score does the source give for GKGSNASIGVITVDTVYIVA here?
**A.** The amyloid nucleation score was 1.42 ± 0.09.

**Q.** For GIMMSD, which amyloid nucleation score is on record?
**A.** Its amyloid nucleation score is “inactive”.

**Q.** Which amyloid nucleation score does the source give for KGRMQVEWDFGISAYCGMML here?
**A.** Its amyloid nucleation score is -0.431 ± 1.1.

**Q.** Which amyloid nucleation score does the source give for CNANGASAVKF here?
**A.** Its amyloid nucleation score is “inactive”.
